From US20150274826A1 (ARCH ONCOLOGY, published 2015)

T1: mouse CD47 (mouse, UniProt Q61735 19-303)
T1 construct: whole, on cells; also called CD47 on mouse RBCs; CD47 on 4T1 cells
T1 sequence (looked up): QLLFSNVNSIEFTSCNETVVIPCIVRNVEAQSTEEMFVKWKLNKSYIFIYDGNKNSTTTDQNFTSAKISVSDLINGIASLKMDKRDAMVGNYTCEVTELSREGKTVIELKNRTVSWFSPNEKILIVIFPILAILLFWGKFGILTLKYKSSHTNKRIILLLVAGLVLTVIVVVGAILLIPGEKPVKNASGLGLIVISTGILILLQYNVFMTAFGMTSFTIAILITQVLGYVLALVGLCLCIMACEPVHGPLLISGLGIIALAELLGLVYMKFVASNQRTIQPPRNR

T2: rat CD47 (rat, UniProt P97829 19-303)
T2 construct: whole, on cells; also called CD47 on rat RBCs
T2 sequence (looked up): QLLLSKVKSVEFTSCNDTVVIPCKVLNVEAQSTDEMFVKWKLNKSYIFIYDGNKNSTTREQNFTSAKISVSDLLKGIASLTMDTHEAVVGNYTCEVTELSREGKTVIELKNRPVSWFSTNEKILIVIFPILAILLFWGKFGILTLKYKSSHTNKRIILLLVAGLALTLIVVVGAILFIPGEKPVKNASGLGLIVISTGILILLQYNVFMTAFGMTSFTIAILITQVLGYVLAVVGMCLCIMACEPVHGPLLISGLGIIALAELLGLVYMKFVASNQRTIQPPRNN

T3: pig CD47 (pig, UniProt Q9GKE8 19-303)
T3 construct: whole, on cells; also called CD47 on porcine RBCs
T3 sequence (looked up): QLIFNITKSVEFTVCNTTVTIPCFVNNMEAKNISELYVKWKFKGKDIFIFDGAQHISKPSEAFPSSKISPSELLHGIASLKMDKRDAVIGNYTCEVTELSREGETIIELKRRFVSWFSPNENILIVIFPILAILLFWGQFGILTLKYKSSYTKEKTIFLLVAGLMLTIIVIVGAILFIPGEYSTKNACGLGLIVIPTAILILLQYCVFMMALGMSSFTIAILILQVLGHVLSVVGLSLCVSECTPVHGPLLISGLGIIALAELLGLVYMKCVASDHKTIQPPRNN

T4: dog CD47 (dog, UniProt A0A8I3PM61 19-310)
T4 construct: also called CD47 on dog RBCs
T4 sequence: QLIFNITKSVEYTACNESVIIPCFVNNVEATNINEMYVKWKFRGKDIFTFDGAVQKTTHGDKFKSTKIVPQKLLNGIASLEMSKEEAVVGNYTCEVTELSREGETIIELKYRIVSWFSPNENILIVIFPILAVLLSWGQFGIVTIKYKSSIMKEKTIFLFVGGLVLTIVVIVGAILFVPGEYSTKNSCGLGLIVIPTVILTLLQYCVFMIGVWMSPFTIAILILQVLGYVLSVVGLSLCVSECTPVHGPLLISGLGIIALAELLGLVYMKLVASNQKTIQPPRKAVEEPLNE


Experiments:
Test in all cases: flow cytometry on RBCs, CHO supernatant 10 ng/ml
human CD47 = biological target: T5, human CD47 (human, UniProt Q08722 19-323)
T5 construct: whole, on cells; also called CD47 on human RBCs; CD47 on OV10 cells
T5 sequence (Q08722 19-323): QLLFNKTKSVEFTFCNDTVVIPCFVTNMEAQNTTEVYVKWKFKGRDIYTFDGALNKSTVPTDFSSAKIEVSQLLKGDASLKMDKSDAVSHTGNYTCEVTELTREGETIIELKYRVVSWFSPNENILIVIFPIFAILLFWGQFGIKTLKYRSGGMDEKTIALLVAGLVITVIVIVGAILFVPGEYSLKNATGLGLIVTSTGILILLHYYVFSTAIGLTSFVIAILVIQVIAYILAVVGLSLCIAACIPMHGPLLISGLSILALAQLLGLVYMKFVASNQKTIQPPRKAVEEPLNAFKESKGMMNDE
Experimental: (§1) RBCs are incubated for 60 minutes on ice with tissue culture supernatants containing the secreted humanized antibodies at a concentration of 10 ng/ml in a solution of phosphate buffered saline, pH 7.2, 2.5 mM EDTA (PBS+E), or with various concentrations of purified antibodies. Cells are then washed with cold PBS+E, and incubated for an additional hour on ice with FITC labeled donkey anti-human antibody (Jackson Immuno Research Labs, West Grove, Pa.; Catalogue #709-096-149) in PBS+E. Cells are then washed with PBS+E, and antibody binding is analyzed using a BD FACSAria Cell Sorter (Becton Dickinson) or a C6 Accuri Flow Cytometer (Becton Dickinson). Antibody binding is quantitated by comparison of mean fluorescence values relative to that of chimeric antibody >VxP037-01LC (SEQ ID NO:7))/>VxPO37-01HC (SEQ ID NO:57). The mean fluorescence value for each antibody is divided by the mean fluorescence value for the chimeric antibody.

mouse CD47 = biological target: T1, mouse CD47
Experimental: as §1

rat CD47 = biological target: T2, rat CD47
Experimental: as §1

pig CD47 = biological target: T3, pig CD47
Experimental: as §1

dog CD47 = biological target: T4, dog CD47
Experimental: as §1

| Binder | mean fluorescence relative to chimeric antibody (human CD47) [ratio] | mean fluorescence relative to chimeric antibody (mouse CD47) [ratio] | mean fluorescence relative to chimeric antibody (rat CD47) [ratio] | mean fluorescence relative to chimeric antibody (pig CD47) [ratio] | mean fluorescence relative to chimeric antibody (dog CD47) [ratio] |
| --- | --- | --- | --- | --- | --- |
| Clone 7 (pVxK7b-037-hum07-LC / pVxK7b-037-hum07-HC) (antibody, human IgG1, kappa, V domains shown) VH: QVQLQESGPGLVKPGATVKISCKVSGYTFTNYYVFWVRQARGQRLEWIGDINPVNGDTNFNEKFKNRVTITADKSTSTAYMELSSLRSEDTAVYYCARGGYTMDYWGQGTLVTVSS VL: DIVMTQTPLSLPVTPGEPASISCRSSQSLVHSNGNTYLHWYLQKPGQSPQLLIYKVSYRFSGVPDRFSGSGSGTDFTLKISRVEAEDVGVYYCSQNTHVPRTFGQGTKVEIKR | 0.5 | 0.4 | 0.8 | 0.9 | 0.8 |
| Clone 11 (pVxK7b-037-hum11-LC / pVxK7b-037-hum11-HC) (antibody, human IgG1, kappa, V domains shown, also called Cl 11) VH: QVQLQESGPGLVKPGATVKISCKVSGYTFTNYYVFWVRQARGQRLEWIGDINPVNGDTNFNEKFKNRVTITADKSTSTAYMELSSLRSEDTAVYYCARGGYTMDYWGQGTLVTVSS VL: EIVLTQSPATLSVSPGERATLSCRSSQSLVHSNGNTYLHWYQQKPGQAPRLLIYKVSYRFSGVPSRFSGSGSGTDFTFTISSLEAEDAATYYCSQNTHVPRTFGQGTKVEIKR | 0.8 | 0.7 | 1.2 | 1.2 | 0.8 |
| Clone 23 (pVxK7b-037-hum23-LC / pVxK7b-037-hum23-HC) (antibody, human IgG1, kappa) heavy: not shown light: DIVMTQTPLSLPVTPGEPASISCRSSQSLVHSNGNTYLHWYQQKPGKAPKLLIYKVSYRFSGVPDRFSGSGSGTDFTLKISRVEAEDVGVYYCSQNTHVPRTFGQGTKVEIKRTVAAPSVFIFPPSDEQLKSGTASVVCLLNNFYPREAKVQWKVDNALQSGNSQESVTEQDSKDSTYSLSSTLTLSKADYEKHKVYACEVTHQGLSSPVTKSFNRGEC | 1.2 | 1.4 | 3.3 | 1.7 | 1.1 |
| Clone 5 (pVxK7b-037-hum05-LC / pVxK7b-037-hum05-HC) (antibody, human IgG1, kappa) heavy: not shown light: DIVMTQTPLSLPVTPGEPASISCRSSQSLVHSNGNTYLHWYLQKPGQSPQLLIYKVSYRFSGVPDRFSGSGSGTDFTLKISRVEAEDVGVYYCSQNTHVPRTFGQGTKVEIKRTVAAPSVFIFPPSDEQLKSGTASVVCLLNNFYPREAKVQWKVDNALQSGNSQESVTEQDSKDSTYSLSSTLTLSKADYEKHKVYACEVTHQGLSSPVTKSFNRGEC | 1 | 1 | 2.2 | 1.2 | 1.1 |
| Clone 9 (pVxK7b-037-hum09-LC / pVxK7b-037-hum09-HC) (antibody, human IgG1, kappa, also called Cl 9) heavy: not shown light: DVVMTQSPLSLPVTLGQPASISCRSSQSLVHSNGNTYLHWYQQKPGKAPKLLIYKVSYRFSGVPDRFSGSGSGTDFTLKISRVEAEDVGVYYCSQNTHVPRTFGQGTKVEIKRTVAAPSVFIFPPSDEQLKSGTASVVCLLNNFYPREAKVQWKVDNALQSGNSQESVTEQDSKDSTYSLSSTLTLSKADYEKHKVYACEVTHQGLSSPVTKSFNRGEC | 1.2 | 1.4 | 3.7 | 1.6 | 1 |

Second part, the binder after the results:

| mean fluorescence relative to chimeric antibody (human CD47) [ratio] | mean fluorescence relative to chimeric antibody (mouse CD47) [ratio] | mean fluorescence relative to chimeric antibody (rat CD47) [ratio] | mean fluorescence relative to chimeric antibody (pig CD47) [ratio] | mean fluorescence relative to chimeric antibody (dog CD47) [ratio] | Binder |
| --- | --- | --- | --- | --- | --- |
| 0.8 | 0.7 | 1.2 | 1.1 | 1 | Clone 24 (pVxK7b-037-hum24-LC / pVxK7b-037-hum24-HC) (antibody, human IgG1, kappa, V domains shown, also called Cl 24) VH: QVQLQESGPGLVKPGATVKISCKVSGYTFTNYYVFWVRQARGQRLEWIGDINPVNGDTNFNEKFKNRVTITADKSTSTAYMELSSLRSEDTAVYYCARGGYTMDYWGQGTLVTVSS VL: AIQLTQSPSSLSASVGDRVTITCRSSQSLVHSNGNTYLHWYQQKPGQAPRLLIYKVSYRFSGVPSRFSGSGSGTEFTLTISSLQPDDFATYYCSQNTHVPRTFGQGTKVEIKR |
| 0.6 | 0.6 | 1 | 0.6 | 0.6 | Clone 4 (pVxK7b-037-hum04-LC / pVxK7b-037-hum04-HC) (antibody, human IgG1, kappa, V domains shown) VH: QVQLQESGPGLVKPSQTLSLTCTVSGYTFTNYYVFWVRQAPGKGLEWVSDINPVNGDTNFNEKFKNRVTISVDTSKNQFSLKLSSVTAADTAVYYCARGGYTMDYWGQGTLVTVSS VL: DIQMTQSPSSLSASVGDRVTITCRSSQSLVHSNGNTYLHWYLQKPGQSPQLLIYKVSYRFSGIPARFSGSGSGTEFTLTISSLQSEDFAVYYCSQNTHVPRTFGQGTKVEIKR |
| 0.8 | 0.6 | 1.3 | 1.4 | 0.9 | Clone 12 (pVxK7b-037-hum12-LC / pVxK7b-037-hum12-HC) (antibody, human IgG1, kappa, V domains shown) VH: QVQLQESGPGLVKPGATVKISCKVSGYTFTNYYVFWVRQARGQRLEWIGDINPVNGDTNFNEKFKNRVTITADKSTSTAYMELSSLRSEDTAVYYCARGGYTMDYWGQGTLVTVSS VL: DIVMTQTPLSLPVTPGEPASISCRSSQSLVHSNGNTYLHWYQQKPGKAPKLLIYKVSYRFSGVPDRFSGSGSGTDFTLKISRVEAEDVGVYYCSQNTHVPRTFGQGTKVEIKR |
| 0.7 | 0.7 | 1.2 | 0.8 | 0.8 | Clone 8 (pVxK7b-037-hum08-LC / pVxK7b-037-hum08-HC) (antibody, human IgG1, kappa) heavy: not shown light: DIVMTQTPLSLPVTPGEPASISCRSSQSLVHSNGNTYLHWYQQKPGKAPKLLIYKVSYRFSGVPDRFSGSGSGTDFTLKISRVEAEDVGVYYCSQNTHVPRTFGQGTKVEIKRTVAAPSVFIFPPSDEQLKSGTASVVCLLNNFYPREAKVQWKVDNALQSGNSQESVTEQDSKDSTYSLSSTLTLSKADYEKHKVYACEVTHQGLSSPVTKSFNRGEC |
| 1.1 | 1.2 | 2.9 | 1.5 | 1.1 | Clone 10 (pVxK7b-037-hum10-LC / pVxK7b-037-hum10-HC) (antibody, human IgG1, kappa, V domains shown) VH: QVQLQESGPGLVKPSQTLSLTCTVSGYTFTNYYVFWVRQARGQRLEWIGDINPVNGDTNFNEKFKNRLTISKDTSKNQVVLTMTNMDPVDTATYYCARGGYTMDYWGQGTLVTVSS VL: DIVMTQTPLSLPVTPGEPASISCRSSQSLVHSNGNTYLHWYLQKPGQSPQLLIYKVSYRFSGVPDRFSGSGSGTDFTLKISRVEAEDVGVYYCSQNTHVPRTFGQGTKVEIKR |
